{"source": "patent US20250122242A1", "about": "“SELECTION SYSTEMS, PEPTIDES DETERMINED THEREWITH, AND METHODS OF USING SAME” (Wisconsin Alumni Research Foundation, priority 2023, published 2025)", "key": {"[1]": {"molecular_target": "Aβ42-T7n (UniProt P00573+P05067)", "sequence (P05067+P00573 fused)": "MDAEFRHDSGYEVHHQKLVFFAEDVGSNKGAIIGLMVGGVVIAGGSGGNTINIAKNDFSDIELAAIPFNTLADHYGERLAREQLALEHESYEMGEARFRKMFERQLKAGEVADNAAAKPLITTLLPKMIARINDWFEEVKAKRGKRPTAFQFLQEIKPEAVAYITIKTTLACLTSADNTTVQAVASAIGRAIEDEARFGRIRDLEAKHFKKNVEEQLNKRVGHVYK", "details": "clonal SP encoding the sequence", "from_the_text": "Therefore, we turned to a split-T7 RNA polymerase (T7 RNAP) reporter used to evolve proteins with improved soluble expression.^33 In our new selection, host E. coli express an aggregation-prone protein (APP) fused to the N-terminal half of split-T7 RNAP (T7n). When the APP-T7n fusion is translated, it misfolds due to the APP, preventing T7n from associating with the C-terminal half of split-T7 RNAP (T7c; FIG. 2A). If a SP-encoded inhibitor binds to and prevents APP aggregation, the fused T7n will remain folded and join with T7c to produce full-length T7 RNAP. The reconstituted T7 RNAP then transcribes gIII, which we place under control of the T7 promoter (PT7), producing pill and allowing the SP to reproduce (FIGS. 2A and 2B).\nWe used the SICLOPPS method to biosynthesize cyclic peptides that can be selected in E. coli.^15 In SICLOPPS, a precursor fusion consisting of the C-terminal half of the Ssp DnaE split intein, the peptide sequence to be cyclized, and the N-terminal half of the same split intein undergoes intein splicing after translation to produce head-to-tail cyclized peptides (FIG. 7).\nStrain S206035 was used for plasmid cloning, amplification, and phage assays. Strain S220835 was used for SP cloning and plaque assays. Plasmids and SPs were cloned by USER assembly or blunt-end ligation. Competent cells were prepared and transformed using the TSS method. Phage propagation and plaque assays were performed as previously described.^54 Unless otherwise noted, phage propagation assays used an input of […] phage to infect a 2 mL culture of host cells."}, "[2]": {"tested_on": "Aβ42-GFP", "sequence (P05067 672-713)": "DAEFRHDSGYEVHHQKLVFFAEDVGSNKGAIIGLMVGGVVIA", "assay": "Aβ42-GFP folding reporter fluorescence assay", "type": "cell-based, E. coli", "details": "expressed from plasmid, 0.04 mM IPTG, compared with CKVWQLL (FIG. 3H)", "experimental": "(§1) Single colonies of S2060s transformed with pBL066c and SICLOPPS plasmid were used to make overnight cultures in 2×YT with maintenance antibiotics. The overnight culture was diluted (1:100) into 1 mL DRM on a 96 deep-well plate (VWR, 75870-796) with maintenance antibiotics and IPTG (0, 0.04, 0.2, or 1 mM). The diluted culture was incubated at 37° C. with shaking for 2.5 h, after which aTc (200 ng/mL) was added. 100 μL of the culture was transferred onto a black clear-bottom 96-well plate (VWR, 89131-680) to measure fluorescence signal 2, 3, 5 h after addition of aTc. GFP fluorescence signal (excitation wavelength=485 nm, emission wavelength=535 nm) was then measured using a Tecan M Plex microplate reader."}, "[3]": {"tested_on": "E. coli", "assay": "Growth (OD600) of cells expressing SICLOPPS precursors upon IPTG induction", "details": "OD600, IPTG induction (FIG. 9B)", "experimental": "Data reflects 3 biological replicates plotted as individual values.\nas §1"}}}
{"substance": "CRVYQVL (cyclic; Circular) [cyclo-CRVYQVL]", "values": [{"measurement": "phage propagation activity (fitness) on Aβ42-T7n selection", "setting": "[1]", "result": "more modest fitness"}, {"measurement": "activity in Aβ42-GFP folding reporter assay", "setting": "[2]", "result": "appeared inactive"}, {"measurement": "effect of construct induction on cell growth", "setting": "[3]", "result": "greatly decreased cell growth"}]}
